Experimental data taken from patent publication US20140120109A1 (Regeneron, published 2014).

Experiments:
[1] = target: T1, full length human TL1A expressed on HEK293 cells (human, UniProt O95150 1-251); assay: flow, HEK293/hTL1A, mAb 1 ug/ml + 0.1 ug/ml soluble hTL1A
T1 construct: also called HEK293/hTL1A; cell-surface hTL1A
T1 sequence: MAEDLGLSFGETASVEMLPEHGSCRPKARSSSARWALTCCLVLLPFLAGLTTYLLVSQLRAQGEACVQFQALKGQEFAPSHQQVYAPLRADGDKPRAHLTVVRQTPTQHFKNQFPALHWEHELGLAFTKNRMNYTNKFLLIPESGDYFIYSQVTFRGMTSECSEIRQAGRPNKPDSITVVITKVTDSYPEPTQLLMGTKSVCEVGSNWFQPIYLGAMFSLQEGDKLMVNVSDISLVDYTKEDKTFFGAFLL
Procedure: (§1) Human embryonic kidney 293 cells stably transfected to over-express cell-surface hTL1A were first stained in a flow cytometric experiment with eight anti-hTL1A antibodies at four concentrations (1, 0.1, 0.01, and 0.003 μg/ml). […] The lowest antibody concentration providing significant staining levels was then used in a competition binding experiment. A negative isotype control antibody (human IgG4) was used at 1 μg/ml to define the background signal. For the competition experiment, eight antibody samples, at the minimal concentrations identified above, were first treated with soluble hTL1A expressed from CHO cells at concentrations ranging from 0.03 μg/ml to 10 μg/ml. After pre-incubation for 30 min on ice, the antibody/hTL1A mixture was added to 293/HEK-hTL1A cells that had been isolated by centrifugation in a 96-well conical plate. After incubation for an additional 10 minutes on ice, the cells were washed. The secondary reagent, anti-h Fcγ-APC F(ab′)₂, was added to all wells at a 200-fold dilution to detect bound antibodies. Samples were incubated for 15 minutes on ice, away from light, and then washed. Cells were processed on an BD™ LSR II Flow Cytometer (BD Biosciences) to detect anti-hTL1A antibodies bound to the cell surface, and data were analyzed using FlowJo software (version 8.8.6; Tree Star Inc.). Maximum signal: Anti-hTL1A antibody binding in the absence of soluble hTL1A; Minimum signal: Signal recorded when […] of isotype control antibody was added in place of the anti-hTL1A antibody. NT: Not tested.

[2] = target: T2, human TL1A, soluble, CHO-expressed, residues 72-251 of SEQ ID NO:244 with N-terminal His6-tag (human, UniProt O95150 72-251); assay: cell-based or functional assay
T2 sequence: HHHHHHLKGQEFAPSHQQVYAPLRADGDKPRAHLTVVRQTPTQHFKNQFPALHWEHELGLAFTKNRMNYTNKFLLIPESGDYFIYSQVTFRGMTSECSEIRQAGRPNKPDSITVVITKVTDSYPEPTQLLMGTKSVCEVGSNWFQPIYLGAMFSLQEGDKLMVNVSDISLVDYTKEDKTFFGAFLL

[3] = target: T1, full length human TL1A expressed on …; assay: flow, HEK293/hTL1A, mAb 1 ug/ml + 0.3 ug/ml soluble hTL1A
Procedure: as §1

[4] = target: T3, full length rat TL1A expressed on HEK293 cells (rat, UniProt Q8K3Y7 1-252); assay: cell-based or functional assay
T3 sequence: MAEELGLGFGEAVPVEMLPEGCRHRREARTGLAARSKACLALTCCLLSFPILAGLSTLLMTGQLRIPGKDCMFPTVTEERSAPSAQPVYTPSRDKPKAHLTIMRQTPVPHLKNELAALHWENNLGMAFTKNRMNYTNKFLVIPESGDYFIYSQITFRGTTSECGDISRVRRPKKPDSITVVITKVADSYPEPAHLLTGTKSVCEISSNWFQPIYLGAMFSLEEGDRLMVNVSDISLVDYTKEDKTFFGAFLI

[5] = target: T1, full length human TL1A expressed on …; assay: flow, HEK293/hTL1A, mAb 1 ug/ml + 1 ug/ml soluble hTL1A
Procedure: as §1

[6] = target: T1, full length human TL1A expressed on …; assay: flow, HEK293/hTL1A, mAb 1 ug/ml, no soluble hTL1A (maximum signal)
Procedure: as §1

B1: H4H1817N (antibody, human IgG4 S228P, V domains shown)
VH: QVQLQQWGAGLLKPSETLSLTCAVSGGSFSDYFWTWIRQPPGKGLEWIGEISHSGRTNYNPSLKSRVTISVDTSMSQFSLKMTSVTAADSAVYYCARDYPNWVFDYWGQGTLVTVSS
VL: EIELTQSPGTLSLSPGEGATLSCRASQSVFNSYLAWYQQKPGQAPRLLIYGASRRATGIPDRFSGSGSGTDFTLTISRLEPGDFAVYFCQQYGNSPLTFGGGTKVEIK
notes: human IgG4(S108P) form of H2M1817N
MFI [1]: 97.2
% Blocking IFN-g, D1, 1 ug/ml mAb [2]: 100%
% Blocking IFN-g, D1, 3 ug/ml mAb [2]: 100%
% Blocking IFN-g, D2, 1 ug/ml mAb [2]: 100%
% Blocking IFN-g, D2, 3 ug/ml mAb [2]: 100%
% Blocking IFN-g, D3, 1 ug/ml mAb [2]: 90%
% Blocking IFN-g, D3, 3 ug/ml mAb [2]: 100%
% Blocking IFN-g, D4, 1 ug/ml mAb [2]: 90%
% Blocking IFN-g, D4, 3 ug/ml mAb [2]: 100%
% Blocking IFN-g, D5, 1 ug/ml mAb [2]: 100%
% Blocking IFN-g, D5, 3 ug/ml mAb [2]: 100%
% Blocking IFN-g, D6, 1 ug/ml mAb [2]: 45%
% Blocking IFN-g, D6, 3 ug/ml mAb [2]: 100%
% Blocking IFN-g, D7, 1 ug/ml mAb [2]: 55%
% Blocking IFN-g, D7, 3 ug/ml mAb [2]: 100%
% Blocking IFN-g, D8, 1 ug/ml mAb [2]: 100%
% Blocking IFN-g, D8, 3 ug/ml mAb [2]: 100%
% Blocking IFN-g, D9, 1 ug/ml mAb [2]: 55%
% Blocking IFN-g, D9, 3 ug/ml mAb [2]: 95%
% Blocking IFN-g, D10, 1 ug/ml mAb [2]: 80%
% Blocking IFN-g, D10, 3 ug/ml mAb [2]: 85%
MFI [3]: 23.6
IC50, reporter + 10,000 TL1A cells [4]: 95 nM
MFI [5]: 29.1
MFI [6]: 110
